In publication PMC9010301:

Target: Rad24-RFC clamp loader;9-1-1 clamp (Ddc1-Mec3-Rad17) (Saccharomyces cerevisiae;Saccharomyces …, UniProt P32641;P40348;P38629;P40339;P38251;Q08949;Q02574;P48581 …, |)
Test: cryo-EM structure; closed 9-1-1 state; 0.5 mM ATPgS, 5 mM Mg acetate; 4 ATPgS and 1 ADP bound; 3.2 A; 1.8 uM Rad24-RFC, 2.2 uM 9-1-1, 2.7 uM DNA, 0.5 mM ATPgS, 5 mM Mg acetate; 9-1-1 + DNA 10 min at 30 C, then with loader on ice water 30 min (double-tailed) or 3

B1: double-tailed DNA (3'- and 5'-recessed ends) (dsDNA)
DNA 1: GCAGACACTACGAGTACATA
DNA 2: TTTTTTTTTTTATGTACTCGTAGTGTCTGCTTTTTTTTTT
modifications: 5'-OH
binding result: binds
